Measurements from patent US20170252327A1, “Methods of Modulating Gastrointestinal Tract Flora Levels with Alkaline Phosphatase” (priority 2008, published 2017).
“Also recorded” adds a separate entry of the source.

Key:
gut microbiota [1] = experiment: Restoration of gut flora after streptomycin treatment with or without cIAP (stool culture in LB media); type: in vivo, mice (C57BL/6)
Procedure: To address the role of intestinal alkaline phosphatase on the gastrointestinal tract flora of mammals, an experiment was performed in which five approximately six week old mice (C57BL/6) of each test group were treated with an antimicrobial drug, streptomycin, in the presence or absence of calf intestinal alkaline phosphatase (cIAP) (Sigma, St. Louis, Mo.). Both streptomycin (5 mg/ml) and cIAP (50 units/ml) were administered orally with the animal's drinking water. Individual stool samples of each group were cultured in LB media each day and analyzed for the presence/absence of gut flora. The gastrointestinal tract flora of mice before antibiotic treatment was considered as a baseline control for the normal gut flora (present in all samples).

gut microbiota [2] = experiment: Restoration of gut flora after ampicillin treatment with or without cIAP (stool culture in LB media); type: in vivo, mice (C57BL/6)
Procedure: An experiment was performed in which five mice (C57BL/6) of each test group, approximately 6 weeks old, were treated with 1 mg/ml of the antimicrobial drug ampicillin, in the presence or absence of calf intestinal alkaline phosphatase (cIAP) (New England Biolabs, Ipswich, Mass.). Ampicillin was administered orally with the animal's drinking water at a concentration of 1 mg/ml, and 250 units of cIAP were administered twice daily as oral gavage. Individual stool samples of each group were cultured in LB media each day and analyzed for the presence/absence of the gut flora. The gut flora of mice before receiving the antibiotic was considered as a baseline control for normal gastrointestinal tract flora (present in all samples). […] Both treatment groups received ampicillin for 10 days.

[3] = system: streptomycin-resistant S. typhimurium; experiment: Growth of Salmonella typhimurium in streptomycin-treated WT mice with or without cIAP; type: in vivo; settings: for Growth of pathogenic S. typhimurium: cIAP in the drinking water
Procedure: Restoration or maintenance of the normal gastrointestinal tract flora by IAP was postulated to inhibit infection by pathogenic bacteria because pathogenic bacteria would likely face competition for ‘food and shelter’ (e.g., nutrition, epithelial attachment sites, space, etc.) and antibacterial factors produced by commensal organisms. Accordingly, groups of WT mice (n=5) were treated with streptomycin (5 mg/ml) for 3 days, followed by oral gavage of 500,000 CFU of streptomycin-resistant S. typhimurium in the presence of cIAP (200 U/ml for cIAP^+ Group) or absence of cIAP (20 μl /ml ‘vehicle for cIAP’ (50 mM KCl, 10 mM Tris-HCl (pH 8.2), 1 mM MgCl2, 0.1 mM ZnCl2, and 50% glycerol) in drinking water for control cIAP^− Group). The presence of S. typhimurium was monitored in the stools of these animals by plating stools on Hektoen plates containing streptomycin (100 μg/ml).

[4] = system: streptomycin-resistant E. coli; experiment: Colonization of E. coli in antibiotic-treated WT mice supplemented with cIAP; type: in vivo; settings: WT mice after streptomycin and ciprofloxacin, p<0.015
Procedure: To determine the temporal effects of IAP on the restoration of commensal gut flora, groups of WT animals (n=6) were treated with streptomycin (5 mg/ml) and ciprofloxacin (0.5 mg/ml) for three days followed by oral gavage of small doses (20,000 CFU) of streptomycin-resistant E. coli for two alternate days (FIG. 4C; Day 0 and Day 2) in the presence or absence of cIAP.

[5] = system: Gram-negative bacteria (mostly E. coli); experiment: Restoration of commensal Gram-negative gut flora in streptomycin-treated WT mice with or without cIAP (MacConkey agar); type: in vivo; settings: for Number of animals with commensal Gram-negative bacteria / restoration of gut flora, cIAP+ vs cIAP- Group: after streptomycin for three days, cIAP 200 U/ml, p<0.00004
Procedure: Accordingly, experiments were performed in which groups of WT mice (n=10) were treated orally with the antibiotic streptomycin in the presence or absence of cIAP. Streptomycin (5 mg/ml) and cIAP (200 U/ml for cIAP^+ Group, n=5) or ‘vehicle for cIAP’ (20 μl/ml ‘vehicle for cIAP’ (50 mM KCl, 10 mM Tris-HCl (pH 8.2), 1 mM MgCl, 0.1 mM ZnCl2, and 50% glycerol) in drinking water for control cIAP^− Group, n=5) were administered in the animals' drinking water and fecal cultures were performed.
Individual stool samples were cultured each day on MacConkey agar media. […] After discontinuation of antibiotic treatment, the time of appearance (Day) of Gram-negative bacteria (mostly E. coli, occasionally P. mirabilis) in stool samples was recorded for each animal. The experiment was repeated six times, which raised the total number of animals in each group to 39 (n=39), however, duration of each experiment varied (7-35 days). Data was compiled from all six experiments and the number of animals with E. coli in each group on a specific day was recorded.

[6] = system: streptomycin-resistant E. coli; experiment: Survival of gavaged commensal E. coli in IAP-KO mice given oral cIAP; type: in vivo; settings: oral supplementation of cIAP
Excerpt: Two groups of IAP-KO animals (n=6) were put on drinking water containing cIAP or ‘vehicle for cIAP.’ On Day 2, animals were gavaged with 20,000 CFU of streptomycin-resistant E. coli, which is a commensal bacterium isolated from the stool of a WT mouse, and the presence of streptomycin-resistant E. coli in the stools of these animals was closely monitored. As only a few animals carried E. coli in their stools (FIG. 4B), the animals were gavaged with another dose of 50,000 CFU of E. coli on Day 5, however, again only a few animals shed E. coli in their stools. On Day 8, most of the animals of either group carried no E. coli in their stools. Supplementation of cIAP was stopped and the animals were treated with streptomycin for 3 days, which should kill most of the native flora, but would allow proliferation of the surviving streptomycin-resistant E. coli.

[7] = type: physicochemical; settings: 24 h
Procedure: IAP activity was determined following the protocol as described by Baykov et al. (Anal Biochem, 171:266, 1988). Briefly, individual stool samples were homogenized in water (10 mg/100 μl), centrifuged and supernatant was collected. Then 25 μl of the stool supernatant (or aqueous cIAP solution) were mixed with 175 μl phosphatase assay reagent containing 5 mM of p-nitrophenyl phosphate (pNPP) followed by determining optical density at 405 nm after a specific time period when the samples usually turned yellow due to release of p-nitrophenol. Protein concentrations of stool supernatants were measured using a kit from Bio-Rad Laboratories (Hercules, Calif.). The specific activity of the enzyme, expressed as pmole pNPP hydrolyzed per minute per μg of protein, and CFU per gm of stool +/− SEM were determined and the results are shown in FIG. 3. As expected, IAP activity is lower in hypothyroid animals (Weeks 6-32, FIG. 3A) as compared to the euthyroid animals (Week 0, FIG. 3A). […] At Week 32 the IAP activity in hyperthyroid animals was approximately 7-fold higher compared to euthyroid animals and 15-fold higher compared to hypothyroid animals. […] On the other hand the fecal bacterial counts in hyperthyroid animals continued to gradually increase, being the highest at Week 32 when the experiment was terminated (FIGS. 3B, 3C, and 3D). […]

B1: calf intestinal alkaline phosphatase (protein, UniProt P19111 20-506, looked up)
Intestinal-type alkaline …: LVPVEEEDPAFWNRQAAQALDVAKKLQPIQTAAKNVILFLGDGMGVPTVTATRILKGQMNGKLGPETPLAMDQFPYVALSKTYNVDRQVPDSAGTATAYLCGVKGNYRTIGVSAAARYNQCKTTRGNEVTSVMNRAKKAGKSVGVVTTTRVQHASPAGAYAHTVNRNWYSDADLPADAQMNGCQDIAAQLVNNMDIDVILGGGRKYMFPVGTPDPEYPDDASVNGVRKRKQNLVQAWQAKHQGAQYVWNRTALLQAADDSSVTHLMGLFEPADMKYNVQQDHTKDPTLQEMTEVALRVVSRNPRGFYLFVEGGRIDHGHHDDKAYMALTEAGMFDNAIAKANELTSELDTLILVTADHSHVFSFGGYTLRGTSIFGLAPSKALDSKSYTSILYGNGPGYALGGGSRPDVNDSTSEDPSYQQQAAVPQASETHGGEDVAVFARGPQAHLVHGVEEETFVAHIMAFAGCVEPYTDCNLPAPTTATSIPD
notes: calf intestinal alkaline phosphatase enzyme (Sigma)
Gut flora of mice receiving only cIAP (gut microbiota [1]; cIAP 50 units/ml in drinking water, no streptomycin): normal gut flora phenotype; also recorded: did not affect normal gut flora | Effect of cIAP on reestablishment of normal gut flora (gut microbiota [1]; co-administered with streptomycin throughout the treatment period): significantly enhanced the early reestablishment of normal gut flora | Gut flora of mice receiving only cIAP (gut microbiota [2]; 250 units cIAP twice daily oral gavage, no ampicillin): normal gut flora phenotype; also recorded: did not affect normal gut flora | Effect of cIAP on time for restoring the normal gut flora (gut microbiota [2]; with ampicillin): significantly reduced the time for restoring the normal gut flora | Salmonella count, less than in cIAP- Group ([3]; cIAP 200 U/ml in drinking water, p<0.001): approximately 4 log | Growth of pathogenic S. typhimurium [3]: dramatically inhibited | Growth of pathogenic S. typhimurium ([3]; listed as IAP): inhibits Salmonella typhimurium infection | Colonization of E. coli [4]: temporal enhancement of colonization of E. coli | Colonization of E. coli ([4]; listed as IAP): temporal enhancement of E. coli colonization | Number of animals with commensal Gram-negative bacteria / restoration of gut flora, cIAP+ vs cIAP- Group [5]: much higher | Number of animals with commensal Gram-negative bacteria / restoration of gut flora, cIAP+ vs cIAP- Group ([5]; listed as IAP): enhances the restoration of antibiotic-associated loss of gut flora | Day at the end of which all animals showed E. coli in their stools ([5]; cIAP+ Group, after discontinuation of streptomycin): 3 days | Survival of E. coli in IAP-KO mice [6]: can survive | Survival of E. coli in IAP-KO mice ([6]; listed as IAP): favors survival of E. coli | cIAP enzymatic activity remaining [7]: approximately 80%
